Measured values reported in patent publication US20240279318A1 (NANJING LEGEND BIOTECH, published 2024).

Columns and labels:
[1] = target: T1, AFP158/HLA-A*02:01 complex (human); test: SPR; vs AS170036 VL1VH1;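 also: crude scFv captured on sensor chip, peptide–HLA complex flowed over at several concentrations, KD estimated from association and dissociation kinetic rates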
T1 construct: biotinylated on the BSP by BirA for ELISA and panning; also called biotinylated AFP158/HLA-A*02:01 complex; Bio-AFP158

[2] = target: T1, AFP158/HLA-A*02:01 complex; test: SPR, crude scFv captured;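 also: Peptide–MHC complex flowed at several concentrations over sensorchip-captured scFv, Kd derived from on- and off-rates obtained from the association and dissociation curves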

| Binder | Affinity increase [1] [fold] | Kd [2] [nM] |
| --- | --- | --- |
| AS170036 VL1VH1 HG108L (scFv) scFv: QSALTQPRSVSGSPGQSVTISCAGTSSDVGSENYVSWYQQHPGKAPKLMIYQVNKRASGVPDRFSGSKSGNTASLTISGLQAEDEADYYCASYRSSDHNIVFGGGTKLTVLGGGGSGGGGSGGGGSEVQLVESGGGLVQPGGSLRLSCAASGFTFSSYAMSWVRQAPGKGLEWVSTINSGTGSPYYADSVKGRFTISRDNSKNTLYLQMNSLRAEDTAVYYCAKNFFDGSWFLLPPAMDYWGQGTLVTVSSHHHHHH | 1.4 | 200 |
| AS170036 VL1VH1 HP58E (scFv) scFv: QSALTQPRSVSGSPGQSVTISCAGTSSDVGSENYVSWYQQHPGKAPKLMIYQVNKRASGVPDRFSGSKSGNTASLTISGLQAEDEADYYCASYRSSDHNIVFGGGTKLTVLGGGGSGGGGSGGGGSEVQLVESGGGLVQPGGSLRLSCAASGFTFSSYAMSWVRQAPGKGLEWVSTINSGTGSEYYADSVKGRFTISRDNSKNTLYLQMNSLRAEDTAVYYCAKNFFDGSWFLGPPAMDYWGQGTLVTVSSHHHHHH | 0.5 | 600 |
| AS170036 VL1VH1 HG108T (scFv) scFv: QSALTQPRSVSGSPGQSVTISCAGTSSDVGSENYVSWYQQHPGKAPKLMIYQVNKRASGVPDRFSGSKSGNTASLTISGLQAEDEADYYCASYRSSDHNIVFGGGTKLTVLGGGGSGGGGSGGGGSEVQLVESGGGLVQPGGSLRLSCAASGFTFSSYAMSWVRQAPGKGLEWVSTINSGTGSPYYADSVKGRFTISRDNSKNTLYLQMNSLRAEDTAVYYCAKNFFDGSWFLTPPAMDYWGQGTLVTVSSHHHHHH | 0.5 | 530 |
| AS170036 VL1VH1 HL107S (scFv) scFv: QSALTQPRSVSGSPGQSVTISCAGTSSDVGSENYVSWYQQHPGKAPKLMIYQVNKRASGVPDRFSGSKSGNTASLTISGLQAEDEADYYCASYRSSDHNIVFGGGTKLTVLGGGGSGGGGSGGGGSEVQLVESGGGLVQPGGSLRLSCAASGFTFSSYAMSWVRQAPGKGLEWVSTINSGTGSPYYADSVKGRFTISRDNSKNTLYLQMNSLRAEDTAVYYCAKNFFDGSWFSGPPAMDYWGQGTLVTVSSHHHHHH | 0.1 | 4100 |
| AS170036 VL1VH1 HG108R (scFv) scFv: QSALTQPRSVSGSPGQSVTISCAGTSSDVGSENYVSWYQQHPGKAPKLMIYQVNKRASGVPDRFSGSKSGNTASLTISGLQAEDEADYYCASYRSSDHNIVFGGGTKLTVLGGGGSGGGGSGGGGSEVQLVESGGGLVQPGGSLRLSCAASGFTFSSYAMSWVRQAPGKGLEWVSTINSGTGSPYYADSVKGRFTISRDNSKNTLYLQMNSLRAEDTAVYYCAKNFFDGSWFLRPPAMDYWGQGTLVTVSSHHHHHH | 0.2 | 1500 |
| AS170036 VL1VH1 HL107I (scFv) scFv: QSALTQPRSVSGSPGQSVTISCAGTSSDVGSENYVSWYQQHPGKAPKLMIYQVNKRASGVPDRFSGSKSGNTASLTISGLQAEDEADYYCASYRSSDHNIVFGGGTKLTVLGGGGSGGGGSGGGGSEVQLVESGGGLVQPGGSLRLSCAASGFTFSSYAMSWVRQAPGKGLEWVSTINSGTGSPYYADSVKGRFTISRDNSKNTLYLQMNSLRAEDTAVYYCAKNFFDGSWFIGPPAMDYWGQGTLVTVSSHHHHHH | 1.1 | 240 |
| AS170036 VL1VH1 HL107V (scFv) scFv: QSALTQPRSVSGSPGQSVTISCAGTSSDVGSENYVSWYQQHPGKAPKLMIYQVNKRASGVPDRFSGSKSGNTASLTISGLQAEDEADYYCASYRSSDHNIVFGGGTKLTVLGGGGSGGGGSGGGGSEVQLVESGGGLVQPGGSLRLSCAASGFTFSSYAMSWVRQAPGKGLEWVSTINSGTGSPYYADSVKGRFTISRDNSKNTLYLQMNSLRAEDTAVYYCAKNFFDGSWFVGPPAMDYWGQGTLVTVSSHHHHHH | 0.1 | 2500 |
| AS170036 VL1VH1 HL107Q (scFv) scFv: QSALTQPRSVSGSPGQSVTISCAGTSSDVGSENYVSWYQQHPGKAPKLMIYQVNKRASGVPDRFSGSKSGNTASLTISGLQAEDEADYYCASYRSSDHNIVFGGGTKLTVLGGGGSGGGGSGGGGSEVQLVESGGGLVQPGGSLRLSCAASGFTFSSYAMSWVRQAPGKGLEWVSTINSGTGSPYYADSVKGRFTISRDNSKNTLYLQMNSLRAEDTAVYYCAKNFFDGSWFQGPPAMDYWGQGTLVTVSSHHHHHH | 0.2 | 1600 |
| AS170036 VL1VH1 HG108W (scFv) scFv: QSALTQPRSVSGSPGQSVTISCAGTSSDVGSENYVSWYQQHPGKAPKLMIYQVNKRASGVPDRFSGSKSGNTASLTISGLQAEDEADYYCASYRSSDHNIVFGGGTKLTVLGGGGSGGGGSGGGGSEVQLVESGGGLVQPGGSLRLSCAASGFTFSSYAMSWVRQAPGKGLEWVSTINSGTGSPYYADSVKGRFTISRDNSKNTLYLQMNSLRAEDTAVYYCAKNFFDGSWFLWPPAMDYWGQGTLVTVSSHHHHHH | 0.1 | 2300 |
| AS170036 VL1VH1 HL107G (scFv) scFv: QSALTQPRSVSGSPGQSVTISCAGTSSDVGSENYVSWYQQHPGKAPKLMIYQVNKRASGVPDRFSGSKSGNTASLTISGLQAEDEADYYCASYRSSDHNIVFGGGTKLTVLGGGGSGGGGSGGGGSEVQLVESGGGLVQPGGSLRLSCAASGFTFSSYAMSWVRQAPGKGLEWVSTINSGTGSPYYADSVKGRFTISRDNSKNTLYLQMNSLRAEDTAVYYCAKNFFDGSWFGGPPAMDYWGQGTLVTVSSHHHHHH | 0.1 | 4400 |
| AS170036 VL1VH1 HP58D (scFv) scFv: QSALTQPRSVSGSPGQSVTISCAGTSSDVGSENYVSWYQQHPGKAPKLMIYQVNKRASGVPDRFSGSKSGNTASLTISGLQAEDEADYYCASYRSSDHNIVFGGGTKLTVLGGGGSGGGGSGGGGSEVQLVESGGGLVQPGGSLRLSCAASGFTFSSYAMSWVRQAPGKGLEWVSTINSGTGSDYYADSVKGRFTISRDNSKNTLYLQMNSLRAEDTAVYYCAKNFFDGSWFLGPPAMDYWGQGTLVTVSSHHHHHH | 0.4 | 660 |
| AS170036 VL1VH1 HL107A (scFv) scFv: QSALTQPRSVSGSPGQSVTISCAGTSSDVGSENYVSWYQQHPGKAPKLMIYQVNKRASGVPDRFSGSKSGNTASLTISGLQAEDEADYYCASYRSSDHNIVFGGGTKLTVLGGGGSGGGGSGGGGSEVQLVESGGGLVQPGGSLRLSCAASGFTFSSYAMSWVRQAPGKGLEWVSTINSGTGSPYYADSVKGRFTISRDNSKNTLYLQMNSLRAEDTAVYYCAKNFFDGSWFAGPPAMDYWGQGTLVTVSSHHHHHH | 0.1 | 3300 |
| AS170036 VL1VH1 HG108V (scFv) scFv: QSALTQPRSVSGSPGQSVTISCAGTSSDVGSENYVSWYQQHPGKAPKLMIYQVNKRASGVPDRFSGSKSGNTASLTISGLQAEDEADYYCASYRSSDHNIVFGGGTKLTVLGGGGSGGGGSGGGGSEVQLVESGGGLVQPGGSLRLSCAASGFTFSSYAMSWVRQAPGKGLEWVSTINSGTGSPYYADSVKGRFTISRDNSKNTLYLQMNSLRAEDTAVYYCAKNFFDGSWFLVPPAMDYWGQGTLVTVSSHHHHHH | 0.7 | 370 |
| AS170036 VL1VH1 HL107T (scFv) scFv: QSALTQPRSVSGSPGQSVTISCAGTSSDVGSENYVSWYQQHPGKAPKLMIYQVNKRASGVPDRFSGSKSGNTASLTISGLQAEDEADYYCASYRSSDHNIVFGGGTKLTVLGGGGSGGGGSGGGGSEVQLVESGGGLVQPGGSLRLSCAASGFTFSSYAMSWVRQAPGKGLEWVSTINSGTGSPYYADSVKGRFTISRDNSKNTLYLQMNSLRAEDTAVYYCAKNFFDGSWFTGPPAMDYWGQGTLVTVSSHHHHHH | 0.1 | 2800 |
| AS170036 VL1VH1 HP58A (scFv) scFv: QSALTQPRSVSGSPGQSVTISCAGTSSDVGSENYVSWYQQHPGKAPKLMIYQVNKRASGVPDRFSGSKSGNTASLTISGLQAEDEADYYCASYRSSDHNIVFGGGTKLTVLGGGGSGGGGSGGGGSEVQLVESGGGLVQPGGSLRLSCAASGFTFSSYAMSWVRQAPGKGLEWVSTINSGTGSAYYADSVKGRFTISRDNSKNTLYLQMNSLRAEDTAVYYCAKNFFDGSWFLGPPAMDYWGQGTLVTVSSHHHHHH | 0.7 | 380 |
| AS170036 VL1VH1 HL107N (scFv) scFv: QSALTQPRSVSGSPGQSVTISCAGTSSDVGSENYVSWYQQHPGKAPKLMIYQVNKRASGVPDRFSGSKSGNTASLTISGLQAEDEADYYCASYRSSDHNIVFGGGTKLTVLGGGGSGGGGSGGGGSEVQLVESGGGLVQPGGSLRLSCAASGFTFSSYAMSWVRQAPGKGLEWVSTINSGTGSPYYADSVKGRFTISRDNSKNTLYLQMNSLRAEDTAVYYCAKNFFDGSWFNGPPAMDYWGQGTLVTVSSHHHHHH | 0.5 | 530 |
| AS170036 VL1VH1 HG108Q (scFv) scFv: QSALTQPRSVSGSPGQSVTISCAGTSSDVGSENYVSWYQQHPGKAPKLMIYQVNKRASGVPDRFSGSKSGNTASLTISGLQAEDEADYYCASYRSSDHNIVFGGGTKLTVLGGGGSGGGGSGGGGSEVQLVESGGGLVQPGGSLRLSCAASGFTFSSYAMSWVRQAPGKGLEWVSTINSGTGSPYYADSVKGRFTISRDNSKNTLYLQMNSLRAEDTAVYYCAKNFFDGSWFLQPPAMDYWGQGTLVTVSSHHHHHH | 1.4 | 200 |
| AS170036 VL1VH1 HG108Y (scFv) scFv: QSALTQPRSVSGSPGQSVTISCAGTSSDVGSENYVSWYQQHPGKAPKLMIYQVNKRASGVPDRFSGSKSGNTASLTISGLQAEDEADYYCASYRSSDHNIVFGGGTKLTVLGGGGSGGGGSGGGGSEVQLVESGGGLVQPGGSLRLSCAASGFTFSSYAMSWVRQAPGKGLEWVSTINSGTGSPYYADSVKGRFTISRDNSKNTLYLQMNSLRAEDTAVYYCAKNFFDGSWFLYPPAMDYWGQGTLVTVSSHHHHHH | 0.2 | 1100 |
| AS170036 VL1VH1 HL107M (scFv) scFv: QSALTQPRSVSGSPGQSVTISCAGTSSDVGSENYVSWYQQHPGKAPKLMIYQVNKRASGVPDRFSGSKSGNTASLTISGLQAEDEADYYCASYRSSDHNIVFGGGTKLTVLGGGGSGGGGSGGGGSEVQLVESGGGLVQPGGSLRLSCAASGFTFSSYAMSWVRQAPGKGLEWVSTINSGTGSPYYADSVKGRFTISRDNSKNTLYLQMNSLRAEDTAVYYCAKNFFDGSWFMGPPAMDYWGQGTLVTVSSHHHHHH | 0.7 | 370 |
